Results published in paper PMC11686378.

Assays:
[1] = target: DNA primase PriSL (PriS-PriL heterodimer) from P. abyssi, in solution (Pyrococcus abyssi) (UniProt Q9V292)
[2] = target: Replication Protein A (RPA) heterotrimer from Pyrococcus abyssi, wild type (Pyrococcus abyssi); test: BLI; RPA or RPA^ΔWH nucleoprotein filaments on a 3'-TEG-biotin 50-nt ssDNA held on streptavidin sensors; PriSL (1.56-100 nM) or PolD (15.62-1000 nM) in solution; steady-state analysis; 25 °C, buffer E with 0.2 mg/ml BSA
[3] = target: DNA primase PriSL (PriS-PriL heterodimer) from P. abyssi, in solution (Pyrococcus abyssi) (UniProt Q9V292); remark: listed apart in the source

DNA primase PriSL (PriS-PriL heterodimer) from P. abyssi, in solution (Pyrococcus abyssi), sequence (Q9V292 whole entry, chain 1 of 2): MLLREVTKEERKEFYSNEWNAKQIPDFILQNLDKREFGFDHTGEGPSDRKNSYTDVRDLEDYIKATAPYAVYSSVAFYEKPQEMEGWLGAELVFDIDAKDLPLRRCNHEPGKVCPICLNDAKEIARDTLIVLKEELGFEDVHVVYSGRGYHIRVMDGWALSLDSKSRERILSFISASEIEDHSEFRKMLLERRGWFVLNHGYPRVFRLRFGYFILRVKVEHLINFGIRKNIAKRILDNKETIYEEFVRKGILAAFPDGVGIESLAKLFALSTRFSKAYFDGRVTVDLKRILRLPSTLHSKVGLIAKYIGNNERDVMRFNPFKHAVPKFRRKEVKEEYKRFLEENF
DNA primase PriSL (PriS-PriL heterodimer) from P. abyssi, in solution (Pyrococcus abyssi), sequence (Q9V291 whole entry, chain 2 of 2, further chain): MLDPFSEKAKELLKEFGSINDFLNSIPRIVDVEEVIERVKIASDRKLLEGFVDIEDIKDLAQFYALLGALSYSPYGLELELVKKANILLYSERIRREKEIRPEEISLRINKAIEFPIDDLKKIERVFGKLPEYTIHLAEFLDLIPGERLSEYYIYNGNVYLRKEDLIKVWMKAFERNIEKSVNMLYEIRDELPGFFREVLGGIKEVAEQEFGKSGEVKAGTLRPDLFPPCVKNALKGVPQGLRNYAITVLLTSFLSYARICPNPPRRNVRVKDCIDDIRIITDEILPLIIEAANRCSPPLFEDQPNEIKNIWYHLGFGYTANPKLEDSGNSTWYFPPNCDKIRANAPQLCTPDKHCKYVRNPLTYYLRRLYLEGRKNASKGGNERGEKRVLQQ

Substance: Replication Protein A (RPA) heterotrimer from Pyrococcus abyssi, wild type (complex)
- PriSL primer extension, long products (≥70 nt), with RPA from 0.05 to 0.8 µM [1]: 5 fold

Substance: Replicative DNA polymerase PolD (DP1-DP2 heterodimer) from P. abyssi, in solution (complex)
- Kd [2]: 136 nM

Substance: RPA^ala-linker, RPA with all 12 glutamic acid residues of the Rpa2 linker substituted with alanine (complex)
- PriSL primer extension, reduction in long extension products against wild-type RPA, over the RPA concentrations tested [3]: 45%
